From patent US20130296242A1, “MEDICATION AND THERAPY TREATING OF CHOROIDAL NEOVASCULARIZATION” (NATIONAL SUN YAT-SEN UNIVERSITY, priority 2012, published 2013)
No end group written: not given here.

Assay: Solubility of VS fragments in water
Format: physicochemical
Description: Accordingly, the VS48 is apt to be dissolved in a solvent directly without any assistance of solubilizers (such as a tag protein, TRX) and with no sediments being produced. The solvent can be any solutions comprising similar osmotic pressure to body's liquid of organisms (such as plasma), for example 0.85-0.9% saline. Preferably, the solvent is 0.85-0.90% saline, which is dramatically stable as store and is capable of being stored for one year under 4° C.

Question: With “GPDICGPGTKKVHVIFNYKGKNVLINKDIRCKDDEFTHLYTLIVRPDN (cysteines drawn unpaired) [VS48]” as the sequence, how does the solubility read?
Answer: The solubility was 1000 µg/mL.
